Assay results published in patent US8071548B2, “Method of reducing injury to mammalian cells” (Nono, Inc., priority 2002, dated 2011).
No end group written: not given here.

Key:
[1] = target: NMDAR/PSD-95 interaction (Rattus norvegicus, UniProt P31016); format: binding; details: as compared with controls
[2] = tested on: cultured cortical neurons; experiment: Intracellular peptide delivery into cortical neuronal cultures (dansyl fluorescence, confocal microscopy); format: cell-based, mouse; details: bath applied to cultured cortical neurons; dansyl peptides 10 μM
Protocol: I bath applied these to cultured cortical neurons and observed their fluorescence by confocal microscopy. […] Tat-NR2B9c-dansyl was detectable in the neurons within 10 min of the start of the application and the peptide accumulated to a maximum level over the next 20 min (FIG. 5C). This level was maintained until the dansyl-Tat-NR2B9c was washed from the bath and the peptide remained detectable within the neurons for more than 5 hours thereafter.

Sequence of NMDAR/PSD-95 interaction (P31016 whole entry): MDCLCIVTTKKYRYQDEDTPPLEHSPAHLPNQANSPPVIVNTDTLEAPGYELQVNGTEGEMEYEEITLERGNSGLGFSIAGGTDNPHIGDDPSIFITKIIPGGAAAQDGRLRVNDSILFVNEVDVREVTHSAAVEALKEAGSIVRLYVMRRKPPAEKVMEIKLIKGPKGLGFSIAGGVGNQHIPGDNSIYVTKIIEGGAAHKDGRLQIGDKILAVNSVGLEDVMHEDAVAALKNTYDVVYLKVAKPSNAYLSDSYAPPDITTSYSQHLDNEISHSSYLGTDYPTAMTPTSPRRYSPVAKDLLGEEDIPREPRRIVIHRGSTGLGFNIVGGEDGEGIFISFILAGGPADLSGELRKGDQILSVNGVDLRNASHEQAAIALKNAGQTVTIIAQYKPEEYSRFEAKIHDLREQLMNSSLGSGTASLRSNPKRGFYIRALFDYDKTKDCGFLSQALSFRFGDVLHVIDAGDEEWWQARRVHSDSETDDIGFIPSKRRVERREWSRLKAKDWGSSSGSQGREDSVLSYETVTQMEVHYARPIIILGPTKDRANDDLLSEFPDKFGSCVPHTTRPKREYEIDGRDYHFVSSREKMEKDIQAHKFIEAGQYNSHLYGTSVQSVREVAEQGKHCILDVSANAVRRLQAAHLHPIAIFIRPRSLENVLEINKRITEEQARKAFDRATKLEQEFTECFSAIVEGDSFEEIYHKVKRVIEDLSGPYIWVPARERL

| Sequence | reduction of co-immunoprecipitation of PSD-95 with NR2B (optical density signal) [1] | entry into cells / intracellular fluorescence [2] |
| --- | --- | --- |
| KALGISYGRKK [Tat38-48] | none of the three control peptides reduced | – |
| KLSSIESDV [NR2B9c] | – | did not enter cells |
